Test results published in patent US8158851B2, “Transgenic high tryptophan plants” (Monsanto Technology LLC, priority 2002, dated 2012).
Where two headings read alike, the source gives them in different places.

How the values were obtained:
[1] = tested on: soy seed; assay: Free amino acid analysis of soy seed (tryptophan content); type: in vivo, Glycine max; settings: R1 soy seeds expressing the mutant protein
Experimental: Amino Acid Extraction: About 50 mg of crushed soy seed (5 mg of Arabidopsis) material was placed in each centrifuge vial. One milliliter of 5% trichloroacetic acid was added to each sample (100 μl for Arabidopsis). The samples were vortexed, and allowed to sit, with agitation, at room temperature for 15 min. They were then microcentrifuged for 15 min at 14000 rpm. Some of the supernatant was then removed, placed in a HPLC vial and sealed. Samples were kept at 4° C. in the analysis queue.
Amino Acid Analysis: The reagents utilized for amino acid analysis included the OPA reagent (o-phthalaldehyde and 3-mercaptopropionic acid in borate buffer (Hewlett-Packard, PN 5061-3335)) where the borate buffer (0.4 N in water, pH 10.2). The analysis was performed using the Agilent 1100 series HPLC system as described in the Agilent Technical Publication, “Amino Acid Analysis Using Zorbax Eclipse-AAA Columns and the Agilent 1100 HPLC”, Mar. 17, 2000. First, 0.5 μl of the sample was derivatized with 2.5 μl of OPA reagent in 10 μl of borate buffer. Second, the derivative is injected onto a Eclipse XDB-C18 5 μm, 4.6×150 mm column using a flow rate of 1.2 ml/min. Amino acid concentrations were measured using fluorescence: excitation at 340 nm, emission at 450 nm. Elution was with a gradient of HPLC Buffers A and B according to Table A, where HPLC Buffer A was 40 mM Na2HPO4, pH=7.8 and HPLC Buffer B was 9:9:2::Methanol:Acetonitrile:Water.
Amino acid standards were prepared from the dry chemicals, using all amino acids of interest. Proline analysis required an additional derivatization step with 9-fluorenylmethyl-chloroformate (FMOC). Amino acid standards were also sometimes purchased in concentrations ranging from 0 to 100 μg/ml. Samples were reported in μg/g of seed powder.
Mature R1 seed is produced and analyzed for free amino acid content using fluorescence detection as described in Agilent Technologies Technical Bulletin REV14. Five seeds are chosen for single seed analysis from each event. […] The highest levels of tryptophan have a negative impact on germination.

[2] = tested on: Agrobacterium tumefaciens AS; assay: Anthranilate synthase enzyme assay and kinetic analysis of purified enzymes; type: biochemical; settings: for Km: 25° C.
Experimental: Agrobacterium tumefaciens AS wild type and mutant enzymes were expressed in E. coli as described in Example 1. The purification of all the Agrobacterium tumefaciens AS enzymes, including wild type and mutants thereof, was performed at 4° C. The cells (approximate wet weight of 1 g) were suspended in 20 ml of purification buffer (50 mM potassium phosphate, pH 7.3, 10 mM MgCl2, 10 mM 2-mercaptoethanol, 10% glycerol) and lysed by ultrasonication (Branson sonifier Cell Disruptor, W185). Supernatant was collected after centrifugation of the homogenate at 20,000×g for 15 min. The supernatant was subjected to ammonium sulfate fractionation (30 to 65% saturation). The precipitate was collected after centrifugation at 20,000×g for 15 min and dissolved in 3 ml of the purification buffer and then loaded as a whole on an Econo-Pac 10DG desalting column, pre-equilibrated with the same buffer. Fractions containing the enzyme were detected by the developed assay and pooled. The pooled enzyme (4.3 mls) was loaded on a 10 ml DEAF Sephacel (Pharmacia Biotech) column (1.5×7.5 cm) equilibrated with the same buffer. The column was washed with 30 ml of the purification buffer and the enzyme was eluted with 30 ml of 50 mM NaCl in the same buffer. Fractions containing high AS activity were pooled and precipitated by 65% ammonium sulfate saturation and isolated and desalted as above. Fractions containing the enzyme were pooled and stored at −80° C.
The standard assay for Agrobacterium tumefaciens AS was performed at 25° C. in an assay buffer containing 100 mM potassium phosphate, pH 7.0, 10 mM MgCl2, 1 mM dithiothreitol, 200 μM chorismate and 10 mM L-glutamine. The reaction was started by adding 30 μl of enzyme to the reaction mixture and mixing. The formation of anthranilate was directly monitored by the absorbance increase at 320 m for 3 minutes. Initial rate of reaction was calculated as unit absorbance increase per second based on the slope of the absorbance change over the reaction time. Km for chorismate (Km^Cho) was determined in the total volume of 1 ml assay buffer containing 100 mM potassium phosphate, pH 7.0, 10 mM MgCl2, 1 mM dithiothreitol with 10 mM L-glutamine and varying the concentration of chorismate between 2.5-100 μM chorismate. The Km for glutamine (Km^Gln) was determined in the total volume of 1 ml assay buffer containing 100 mM potassium phosphate, pH 7.0, 10 mM MgCl2, 1 mM dithiothreitol with 200 μM chorismate and varying the concentration of L-glutamine between 0.1-2 mM L-glutamine. IC50 for tryptophan (IC50^Trp) was determined with in the total volume of 1 ml assay buffer containing 100 mM potassium phosphate, pH 7.0, 10 mM MgCl2, 1 mM dithiothreitol, 10 mM L-glutamine, 200 μM chorismate and varying the concentration of L-tryptophan between 0.1-10 mM L-tryptophan. Kinetic parameters and IC50 of AS were calculated after fitting the data to a non-linear regression program (GraFit).

Molecule | amounts of tryptophan [1] | Km ([2]; pH 7.0, 200 μM chorismate, L-glutamine varied, read-out: Km^Gln) | Km ([2]; pH 7.0, 10 mM L-glutamine, chorismate varied, read-out: Km^Cho) | IC50 ([2]; inhibition by L-tryptophan, 10 mM L-glutamine, 200 μM chorismate) | kcat ([2]; purified enzyme from E. coli)
V48F (protein, An A. tumefaciens mutant.) MVTIIQDDGAETYETKGGIQVSRKRRPTDYANAIDNYIEKLDSHRGAFFSSNYEYPGRYTRWDTAIVDPPLGISCFGRKMWIEAYNGRGEVLLDFITEKLKATPDLTLGASSTRRLDLTVNEPDRVFTEEERSKIPTVFTALRAIVDLFYSSADSAIGLFGAFGYDLAFQFDAIKLSLARPEDQRDMVLFLPDEILVVDHYSAKAWIDRYDFEKDGMTTDGKSSDITPDPFKTTDTIPPKGDHRPGEYSELVVKAKESFRRGDLFEVVPGQKFMERCESNPSAISRRLKAINPSPYSFFINLGDQEYLVGASPEMFVRVSGRRIETCPISGTIKRGDDPIADSEQILKLLNSKKDESELTMCSDVDRNDKSRVCEPGSVKVIGRRQIEMYSRLIHTVDHIEGRLRDDMDAFDGFLSHAWAVTVTGAPKLWAMRFIEGHEKSPRAWYGGAIGMVGFNGDMNTGLTLRTIRIKDGIAEVRAGATLLNDSNPQEEEAETELKASAMISAIRDAKGTNSAATKRDAAKVGTGVKILLVDHEDSFVHTLANYFRQTGATVSTVRSPVAADVFDRFQPDLVVLSPGPGSPTDFDCKATIKAARARDLPIFGVCLGLQALAEAYGGELRQLAVPMHGKPSRIRVLEPGLVFSGLGKEVTVGRYHSIFADPATLPRDFIITAESEDGTIMGIEHAKEPVAAVQFHPESIMTLGQDAGMRMIENVVVHLTRKAKTKAA | very high amounts of tryptophan |  |  |  | 
V48Y (protein, An A. tumefaciens mutant.) MVTIIQDDGAETYETKGGIQVSRKRRPTDYANAIDNYIEKLDSHRGAYFSSNYEYPGRYTRWDTAIVDPPLGISCFGRKMWIEAYNGRGEVLLDFITEKLKATPDLTLGASSTRRLDLTVNEPDRVFTEEERSKIPTVFTALRAIVDLFYSSADSAIGLFGAFGYDLAFQFDAIKLSLARPEDQRDMVLFLPDEILVVDHYSAKAWIDRYDFEKDGMTTDGKSSDITPDPFKTTDTIPPKGDHRPGEYSELVVKAKESFRRGDLFEVVPGQKFMERCESNPSAISRRLKAINPSPYSFFINLGDQEYLVGASPEMFVRVSGRRIETCPISGTIKRGDDPIADSEQILKLLNSKKDESELTMCSDVDRNDKSRVCEPGSVKVIGRRQIEMYSRLIHTVDHIEGRLRDDMDAFDGFLSHAWAVTVTGAPKLWAMRFIEGHEKSPRAWYGGAIGMVGFNGDMNTGLTLRTIRIKDGIAEVRAGATLLNDSNPQEEEAETELKASAMISAIRDAKGTNSAATKRDAAKVGTGVKILLVDHEDSFVHTLANYFRQTGATVSTVRSPVAADVFDRFQPDLVVLSPGPGSPTDFDCKATIKAARARDLPIFGVCLGLQALAEAYGGELRQLAVPMHGKPSRIRVLEPGLVFSGLGKEVTVGRYHSIFADPATLPRDFIITAESEDGTIMGIEHAKEPVAAVQFHPESIMTLGQDAGMRMIENVVVHLTRKAKTKAA | very high amounts of tryptophan |  |  |  | 
S51C (protein, An A. tumefaciens mutant.) MVTIIQDDGAETYETKGGIQVSRKRRPTDYANAIDNYIEKLDSHRGAVFSCNYEYPGRYTRWDTAIVDPPLGISCFGRKMWIEAYNGRGEVLLDFITEKLKATPDLTLGASSTRRLDLTVNEPDRVFTEEERSKIPTVFTALRAIVDLFYSSADSAIGLFGAFGYDLAFQFDAIKLSLARPEDQRDMVLFLPDEILVVDHYSAKAWIDRYDFEKDGMTTDGKSSDITPDPFKTTDTIPPKGDHRPGEYSELVVKAKESFRRGDLFEVVPGQKFMERCESNPSAISRRLKAINPSPYSFFINLGDQEYLVGASPEMFVRVSGRRIETCPISGTIKRGDDPIADSEQILKLLNSKKDESELTMCSDVDRNDKSRVCEPGSVKVIGRRQIEMYSRLIHTVDHIEGRLRDDMDAFDGFLSHAWAVTVTGAPKLWAMRFIEGHEKSPRAWYGGAIGMVGFNGDMNTGLTLRTIRIKDGIAEVRAGATLLNDSNPQEEEAETELKASAMISAIRDAKGTNSAATKRDAAKVGTGVKILLVDHEDSFVHTLANYFRQTGATVSTVRSPVAADVFDRFQPDLVVLSPGPGSPTDFDCKATIKAARARDLPIFGVCLGLQALAEAYGGELRQLAVPMHGKPSRIRVLEPGLVFSGLGKEVTVGRYHSIFADPATLPRDFIITAESEDGTIMGIEHAKEPVAAVQFHPESIMTLGQDAGMRMIENVVVHLTRKAKTKAA | very high amounts of tryptophan |  |  |  | 
F298A (protein, An A. tumefaciens mutant.) MVTIIQDDGAETYETKGGIQVSRKRRPTDYANAIDNYIEKLDSHRGAVFSSNYEYPGRYTRWDTAIVDPPLGISCFGRKMWIEAYNGRGEVLLDFITEKLKATPDLTLGASSTRRLDLTVNEPDRVFTEEERSKIPTVFTALRAIVDLFYSSADSAIGLFGAFGYDLAFQFDAIKLSLARPEDQRDMVLFLPDEILVVDHYSAKAWIDRYDFEKDGMTTDGKSSDITPDPFKTTDTIPPKGDHRPGEYSELVVKAKESFRRGDLFEVVPGQKFMERCESNPSAISRRLKAINPSPYSAFINLGDQEYLVGASPEMFVRVSGRRIETCPISGTIKRGDDPIADSEQILKLLNSKKDESELTMCSDVDRNDKSRVCEPGSVKVIGRRQIEMYSRLIHTVDHIEGRLRDDMDAFDGFLSHAWAVTVTGAPKLWAMRFIEGHEKSPRAWYGGAIGMVGFNGDMNTGLTLRTIRIKDGIAEVRAGATLLNDSNPQEEEAETELKASAMISAIRDAKGTNSAATKRDAAKVGTGVKILLVDHEDSFVHTLANYFRQTGATVSTVRSPVAADVFDRFQPDLVVLSPGPGSPTDFDCKATIKAARARDLPIFGVCLGLQALAEAYGGELRQLAVPMHGKPSRIRVLEPGLVFSGLGKEVTVGRYHSIFADPATLPRDFIITAESEDGTIMGIEHAKEPVAAVQFHPESIMTLGQDAGMRMIENVVVHLTRKAKTKAA |  | 100 µM | 9.2 µM | 5.5 µM | 0.46 s⁻¹
